Source: US20250388623A1 (CHENGDU BRILLIANT INSPIRATION BIOTHERAPEUTICS, published 2025)
Bridge positions count the residues as written; N and C are the ends. Ends that are not written are not given here.

B1: SEQ ID NO: 50 (peptide)
peptide: YRVRFLAKENVTQDAEDN
notes: Printed as 'Without modification'; also called Positive control group
B2: SEQ ID NO: 24 (peptide)
peptide: Ac-TQDAEDNTAS-NH2
B3: SEQ ID NO: 25 (peptide)
peptide: Ac-TQDAEDPTAS-NH2
B4: SEQ ID NO: 26 (peptide)
peptide: Ac-TQDPEDNTAS-NH2
B5: SEQ ID NO: 46 (peptide)
peptide: TQDPEDNTAS
modifications: Head-to-tail cyclization
notes: cyclic peptide
B6: SEQ ID NO: 33 (peptide)
peptide: Ac-TQDAEDNTASH-NH2
B7: SEQ ID NO: 36 (peptide)
peptide: Ac-TQDAEDNTVSFLQ-NH2
B8: SEQ ID NO: 40 (peptide)
peptide: TQDAEDN
modifications: Head-to-tail cyclization
notes: cyclic peptide; also called TQDAEDN; cyclo[Thr-Gln-Asp-Ala-Glu-Asp-Asn]
B9: SEQ ID NO: 45 (peptide)
peptide: QDAEDNT
modifications: Head-to-tail cyclization
notes: cyclic peptide; also called QDAEDNT; cyclo[Gln-Asp-Ala-Glu-Asp-Asn-Thr]
B10: SEQ ID NO: 06 (peptide)
peptide: Ac-TQDAEDN-NH2
notes: also called TQDAEDN
B11: SEQ ID NO: 14 (peptide)
peptide: Ac-TQDPEDN-NH2
notes: also called TQDPEDN
B12: SEQ ID NO: 22 (peptide)
peptide: Ac-TQDAEDPTA-NH2
B13: SEQ ID NO: 15 (peptide)
peptide: Ac-TQDAEDNT-NH2
B14: SEQ ID NO: 23 (peptide)
peptide: Ac-QDAEDNTAS-NH2
B15: SEQ ID NO: 48 (peptide)
peptide: Ac-TQDPAEDN-NH2
B16: SEQ ID NO: 49 (peptide)
peptide: Ac-TQDAEDNTQD-NH2
B17: SEQ ID NO: 31 (peptide)
peptide: Ac-TQDAEDNTASF-NH2
B18: SEQ ID NO: 41 (peptide)
peptide: TQDPEDN
modifications: Head-to-tail cyclization
B19: SEQ ID NO: 42 (peptide)
peptide: TQDAEDNK
modifications: lactam 3-8
B20: SEQ ID NO: 03 (peptide)
peptide: Ac-TQDPED-NH2
B21: SEQ ID NO: 47 (peptide)
peptide: Ac-TQDPAED-NH2
B22: SEQ ID NO: 04 (peptide)
peptide: Ac-TQDAED-NH2
B23: SEQ ID NO: 05 (peptide)
peptide: Ac-QDAEDN-NH2
B24: SEQ ID NO: 17 (peptide)
peptide: Ac-TQDAEDNTV-NH2

biological target: T1, TSP-1 protein (novoprotein, Catalog No. CU45) (UniProt P07996 19-1170, limits assumed); assay: competition ELISA, TSP-1 coated, CD36-Fc as competitor, peptide 0-100 µM
T1 construct: Bought protein coated on the ELISA plate; also called Thrombospondin-1
Method: (§1) ELISA assay was performed to detect the ability of the polypeptides to block the binding of TSP-1 protein to CD36, a TSP-1 receptor protein. TSP-1 protein (novoprotein, Catalog No. CU45) was diluted to 2 μg/mL using 100 mM carbonate buffer and added to sample wells (100 μL/well) of a 96-well ELISA plate (Thermo, Catalog No. 437111), and incubated overnight at 4° C.; after washing the plate twice using 1×PBST wash solution, 200 μL of 1.5% BSA (Sigma, Catalog No. B2064) was added to each well, and incubated at 37° C. for 2 h; after washing the plate 3 times using 1×PBST wash solution, the analytes were added (100 μL/well, 3 replicate wells; for the control group, 0.25 μg/mL of Fc-tagged CD36 protein (R&D Systems, Catalog No. 1955-CD-050); and for the polypeptide-treated groups, a mixture containing Fc-tagged CD36 protein and polypeptide at final concentrations of 0.25 μg/mL and 100 μM, respectively), and incubated at 37° C. for 3 h. After washing the plate 5 times using 1×PBST wash solution, a 1:500 dilution solution of FITC-labeled anti-Fc-tagged antibody (Beyotime, Catalog No. A0556) was added, and incubated for 1 h at 37° C.; after washing the plate 5 times using 1×PBST wash solution, a multifunctional ELISA instrument (TECAN, model: Infinite 200 Pro) was used to detect the intensity of FITC fluorescence signal in each sample well. The ability of the polypeptides to block CD36 binding to TSP-1 protein (Table 2-1) was assessed by calculating the ratio of the fluorescence signal from the polypeptide-treated groups to that of the control group, allowing for the determination of the blocking rate of the polypeptides in inhibiting CD36 binding to TSP-1 protein, i.e., (fluorescence signal of the control group-fluorescence signal of the polypeptide-treated group)/fluorescence signal of the control group×100%. Based on the blocking rate results obtained at the single concentration and on the polypeptide molecule properties, the preferred polypeptide molecules were assayed for concentration dependence (at 0 μM, 0.5 μM, 1 μM, 5 μM, 10 μM, and 100 μM), and IC₅₀ values of the polypeptides for blocking CD36 binding to TSP-1 protein were determined to further assess the abilities of the preferred polypeptide molecules to block the binding of CD36 to TSP-1 (Table 2-2).

T1 sequence (P07996 19-1170 limits assumed): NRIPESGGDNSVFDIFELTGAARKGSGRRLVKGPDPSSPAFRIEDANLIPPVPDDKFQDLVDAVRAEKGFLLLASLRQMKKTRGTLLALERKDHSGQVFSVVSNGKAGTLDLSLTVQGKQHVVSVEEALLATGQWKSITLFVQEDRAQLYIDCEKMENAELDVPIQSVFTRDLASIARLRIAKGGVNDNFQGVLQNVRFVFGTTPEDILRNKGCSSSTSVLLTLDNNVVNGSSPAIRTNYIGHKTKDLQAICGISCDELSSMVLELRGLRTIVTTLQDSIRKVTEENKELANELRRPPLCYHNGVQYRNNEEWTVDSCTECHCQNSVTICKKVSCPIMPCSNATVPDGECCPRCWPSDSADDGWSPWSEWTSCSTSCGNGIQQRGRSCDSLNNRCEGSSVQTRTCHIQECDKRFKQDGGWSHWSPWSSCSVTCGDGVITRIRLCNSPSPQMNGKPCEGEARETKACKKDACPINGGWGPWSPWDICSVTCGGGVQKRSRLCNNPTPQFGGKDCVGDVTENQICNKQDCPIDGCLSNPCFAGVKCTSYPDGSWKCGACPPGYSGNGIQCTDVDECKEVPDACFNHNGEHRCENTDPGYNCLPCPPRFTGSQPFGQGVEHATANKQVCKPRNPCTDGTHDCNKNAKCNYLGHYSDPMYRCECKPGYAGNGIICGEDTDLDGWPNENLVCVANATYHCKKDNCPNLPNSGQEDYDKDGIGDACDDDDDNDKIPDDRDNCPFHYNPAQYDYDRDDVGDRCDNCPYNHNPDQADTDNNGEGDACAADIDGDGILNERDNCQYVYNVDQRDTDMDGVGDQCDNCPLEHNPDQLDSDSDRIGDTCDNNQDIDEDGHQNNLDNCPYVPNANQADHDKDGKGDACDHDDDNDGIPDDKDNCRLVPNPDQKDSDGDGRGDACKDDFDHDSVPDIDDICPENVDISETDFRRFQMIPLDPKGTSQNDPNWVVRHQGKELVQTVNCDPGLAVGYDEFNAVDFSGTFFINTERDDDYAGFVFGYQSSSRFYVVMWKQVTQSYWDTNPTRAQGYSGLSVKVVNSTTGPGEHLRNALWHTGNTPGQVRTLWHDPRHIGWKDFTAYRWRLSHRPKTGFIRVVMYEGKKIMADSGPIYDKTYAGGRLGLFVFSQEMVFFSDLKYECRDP

| Binder | IC50 [µM] |
| --- | --- |
| B1 | 10.6 |
| B2 | 10.6 |
| B3 | 7.4 |
| B4 | 3.4 |
| B5 | 1.4 |
| B6 | 14.3 |
| B7 | 4.85 |
| B8 | 7.7 |
| B9 | 5.96 |
| B10 | 12.7 |
| B11 | 4.76 |
| B12 | 7.2 |
| B13 | 5.65 |
| B14 | 22.9 |
| B15 | 11.7 |
| B16 | 10.1 |

biological target: TSP-1 protein expressed by PMA-differentiated THP-1 macrophage-like cells (UniProt P07996 19-1170); assay: cell-based or functional assay
Sequence (P07996 19-1170 limits assumed): as above

| Binder | Mean (relative fluorescence intensity), 293-TGFβ Res reporter cells |
| --- | --- |
| B1 | 0.84 ratio to negative control |
| B2 | 0.57 ratio to negative control |
| B3 | 0.73 ratio to negative control |
| B4 | 0.68 ratio to negative control |
| B5 | 0.69 ratio to negative control |
| B17 | 0.79 ratio to negative control |
| B6 | 0.67 ratio to negative control |
| B7 | 0.83 ratio to negative control |
| B8 | 0.77 ratio to negative control |
| B18 | 0.62 ratio to negative control |
| B19 | 0.67 ratio to negative control |
| B20 | 0.7 ratio to negative control |
| B9 | 0.52 ratio to negative control |
| B21 | 0.8 ratio to negative control |
| B22 | 0.77 ratio to negative control |
| B23 | 0.83 ratio to negative control |
| B10 | 0.65 ratio to negative control |
| B11 | 0.7 ratio to negative control |
| B24 | 0.78 ratio to negative control |
| B12 | 0.74 ratio to negative control |

biological target: T1, TSP-1 protein (novoprotein, Catalog No. …); assay: competition ELISA, TSP-1 coated, CD36-Fc 0.25 µg/mL as competitor, peptide 100 µM
Method: as §1

| Binder | Blocking rate (Mean, %) [%] |
| --- | --- |
| B1 | 23.4 |
| B2 | 32.6 |
| B3 | 33 |
| B4 | 53.8 |
| B5 | 56.1 |
| B6 | 21.4 |
| B7 | 23.1 |
| B8 | 37.5 |
| B9 | 46 |
| B10 | 17.7 |
| B11 | 27.9 |
| B12 | 40.9 |
| B13 | 30.6 |
| B14 | 22.8 |
| B15 | 29.7 |
| B16 | 30.2 |
